Data on 2 substances can be found in US20190248887A1.

pEC50: −log10 of the molar value.

The target in the test is synthetic peptide representing amino acids 24 through 39 of FXYD5 (Seq ID No. 1), coupled to maleimide activated BSA (Homo sapiens). The test is described as follows: chemiluminescent ELISA, BSA-coupled peptide 24-39 coated, streptavidin-HRP detection; printed as relative binding affinity. For orientation: An ELISA detects its analyte on a solid surface through an enzyme-linked reagent.

In turn, “L15-linker-biotin conjugate (goat polyclonal anti-FXYD5 L15, sc-30603, coupled via SM(PEG)24 to biotin) (antibody)” gave a pEC50 of 7.42.

The substance “N20-linker-biotin conjugate (goat polyclonal anti-FXYD5 N20, sc-30602, coupled via SM(PEG)24 to biotin) (antibody)” gave a pEC50 of 8.43.

The pEC50 is the EC50 on a negative log10 scale, so that one unit is a factor of ten. A higher pEC50 goes with a low EC50.
